Data reported in patent US7264314B2, “Adrenocorticotropic hormone analogs and related methods” (priority 2004, dated 2007).
No end group written: not given here.

Target: T1, adrenal ACTH receptors such as MC-2R (explanted adrenal membrane) (Mus musculus, UniProt Q64326)
T1 construct: the adrenal halves were macerated or otherwise dissociated using Dounce Homogenizer to form a membrane fraction; from tissue; host or cells: membrane fraction of explanted mouse adrenal glands
Assay: in vitro Serum-free Adrenal Competitive Binding Assay
Parameters: species or system mice
Details: cold peptide at 10 nM, 100 nM, 1000 nM
Source text: ACTH analog compounds that bind to adrenal membrane with a greater affinity than endogenous unmodified ACTH, and are able to displace unmodified ACTH can be identified using an in vitro Serum-free Adrenal Competitive Binding Assay (Example 3). […] A higher CPM level indicates the presence of greater amounts of the radiolabelled compound. […] Column 220 indicates the level of radio-labeled unmodified mACTH(1–24) detected after combining the explanted adrenal membrane with only the radio-labeled mACTH(1–24) for 2 hours.(no competitive binding). Columns 230, 240, and 250 show the results of competitive binding assays for binding of non-radio-labeled (“cold”) mACTH(1–24) to displace the radio-labeled mACTH(1–24) from the explanted adrenal membrane (measured in column 220) by competitive binding to receptors such as MC-2R on the adrenal membrane. […]
ACTH analogs with the ability to bind adrenal receptors with a greater affinity than compounds with known adrenal binding activity (preferably ACTH) can also be identified by performing an in vitro Adrenal Competitive Binding Assay, whereby measurement of the reduction in the amount of the radiolabelled adrenal-binding compound (e.g., ACTH) is measured at various concentrations of non-radio-labeled ACTH analog test compound in a medium containing explanted adrenal membrane. […]

T1 sequence (Q64326 whole entry): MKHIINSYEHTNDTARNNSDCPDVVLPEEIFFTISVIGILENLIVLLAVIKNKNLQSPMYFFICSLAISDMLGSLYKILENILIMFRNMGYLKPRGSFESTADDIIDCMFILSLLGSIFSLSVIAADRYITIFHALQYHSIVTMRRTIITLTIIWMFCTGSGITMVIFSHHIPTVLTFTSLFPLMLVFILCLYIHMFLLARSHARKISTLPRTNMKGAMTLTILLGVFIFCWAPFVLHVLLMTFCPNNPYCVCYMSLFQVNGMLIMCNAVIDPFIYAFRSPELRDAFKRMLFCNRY
T1 sequence (Q9D159 whole entry partner): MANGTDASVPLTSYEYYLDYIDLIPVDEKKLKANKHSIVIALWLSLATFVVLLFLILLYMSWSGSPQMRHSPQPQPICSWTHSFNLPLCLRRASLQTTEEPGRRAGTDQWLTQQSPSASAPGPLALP

N-Ser^1-Tyr-Ser-Met-Glu^5-His-Phe-Arg-Trp-Gly^10-Lys-Pro-Val-Gly-Lys^15-Arg-Ala-Ala-Trp-Val^20-Lys-Val-Tyr-Pro-Ac (SYSMEHFRWGKPVGKRAAWVKVYP; not fully specified (C-terminus); printed as N-Ser1-Tyr-Ser-Met-Glu5-His-Phe-Arg-Trp-Gly10-Lys-Pro-Val-Gly-Lys15-Arg-Ala-Ala-Trp-Val20-Lys-Val-Tyr-Pro-Ac) [AT814]
displacement of radio-labeled mACTH(1–24) from explanted adrenal membrane (CPM): displacement of the radio-labeled mACTH(1–24)
